The values below come from doi:10.1101/2021.02.08.430206 (bioRxiv, 2021).

The chains are these.
B2: gamma-hemolysin component HlgB (F component leukotoxin) of Staphylococcus aureus (natural protein)
chain: NAEGKITPVSVKKVDDKVTLYKTTATADSDKFKISQILTFNFIKDKSYDKDTLVLKATGNINSGFVKPNPNDYDFSKLYWGAKYNVSISSQSNDSVNVVDYAPKNQNEEFQVQNTLGYTFGGDISISNGLSGGLNGNTAFSETINYKQESYRTTLSRNTNYKNVGWGVEAHKIMNNGWGPYGRDSFHPTYGNELFLAGRQSSAYAGQNFIAQHQMPLLSRSNFNPEFLSVLSHRQDGAKKSKITVTYQREMDLYQIRWNGFYWAGANYKNFKTRTFKSTYEIDWENHKVKLLDTKETENNK

Data set [1] deals with SNAP-tag-fused ACKR1 receptor (human) (UniProt Q16570). Put plainly: FRET or BRET. In general terms: In BRET a luciferase serves as donor, and the signal depends on an acceptor being close.
Data set [2] concerns the molecule itself. Put plainly: native MS.
In data set [3] the target is T1, N16,27,33Q-ACKR1 mutant (non-glycosylated) (human, UniProt Q16570 1-336, N^16,27,33Q | N^16,27,33Q | N^16,27,33Q).
T1 sequence: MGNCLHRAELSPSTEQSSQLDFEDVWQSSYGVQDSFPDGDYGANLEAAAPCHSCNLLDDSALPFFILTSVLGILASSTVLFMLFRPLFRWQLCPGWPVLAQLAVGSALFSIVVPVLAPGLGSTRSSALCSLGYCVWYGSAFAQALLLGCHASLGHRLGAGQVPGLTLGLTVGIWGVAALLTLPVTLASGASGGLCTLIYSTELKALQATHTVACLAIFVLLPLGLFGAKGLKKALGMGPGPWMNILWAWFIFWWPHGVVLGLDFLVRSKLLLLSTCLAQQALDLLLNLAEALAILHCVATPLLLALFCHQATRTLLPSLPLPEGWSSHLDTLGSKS
Put plainly: HDX-MS.

The target in data set [4] is T2, gamma-hemolysin component HlgA (S component leukotoxin) of Staphylococcus aureus (Staphylococcus aureus), P0A074.
T2 chain: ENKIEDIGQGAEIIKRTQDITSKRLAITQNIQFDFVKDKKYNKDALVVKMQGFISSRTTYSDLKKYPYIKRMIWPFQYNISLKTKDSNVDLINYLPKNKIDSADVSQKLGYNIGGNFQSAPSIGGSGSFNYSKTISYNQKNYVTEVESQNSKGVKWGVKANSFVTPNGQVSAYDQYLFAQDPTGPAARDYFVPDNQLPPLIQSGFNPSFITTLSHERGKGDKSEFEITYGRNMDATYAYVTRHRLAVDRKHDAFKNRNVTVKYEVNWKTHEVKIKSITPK
In words: native MS. Conditions: remark: other sources report otherwise.

Data set [5] addresses T3, ACKR1 treated with PNGase F (deglycosylated ACKR1) (human, UniProt Q16570 1-336, N-glycans removed by PNGase F).
T3 sequence: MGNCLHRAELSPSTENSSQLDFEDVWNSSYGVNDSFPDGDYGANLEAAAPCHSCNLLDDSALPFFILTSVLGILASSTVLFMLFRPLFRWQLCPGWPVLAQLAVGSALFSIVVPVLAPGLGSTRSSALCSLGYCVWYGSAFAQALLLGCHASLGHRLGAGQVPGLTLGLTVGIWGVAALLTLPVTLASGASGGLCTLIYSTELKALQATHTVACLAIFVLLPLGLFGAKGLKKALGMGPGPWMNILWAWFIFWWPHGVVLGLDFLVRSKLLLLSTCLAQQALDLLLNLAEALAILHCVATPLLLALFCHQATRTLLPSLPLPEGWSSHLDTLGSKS
In words: native MS.

The target of data set [6] is B2. Put plainly: native MS.

As usually defined, the IC50 is the point on the concentration scale where inhibition reaches its midpoint. A higher IC50 goes with weaker potency in that assay. “HlgAB, equimolar mixture of HlgA and HlgB (from UniProt P0A074;P0A077) (complex)” registered an IC50 in data set [1] of 6.2 nM.

B1: atypical chemokine receptor 1 (ACKR1), purified, glycosylated wild type (receptor)
chain: MGNCLHRAELSPSTENSSQLDFEDVWNSSYGVNDSFPDGDYGANLEAAAPCHSCNLLDDSALPFFILTSVLGILASSTVLFMLFRPLFRWQLCPGWPVLAQLAVGSALFSIVVPVLAPGLGSTRSSALCSLGYCVWYGSAFAQALLLGCHASLGHRLGAGQVPGLTLGLTVGIWGVAALLTLPVTLASGASGGLCTLIYSTELKALQATHTVACLAIFVLLPLGLFGAKGLKKALGMGPGPWMNILWAWFIFWWPHGVVLGLDFLVRSKLLLLSTCLAQQALDLLLNLAEALAILHCVATPLLLALFCHQATRTLLPSLPLPEGWSSHLDTLGSKS
modifications: N-glycosylated at N16, N27 and N33
A word on the stoichiometry N: it is the number of molecules, sites or subunits per partner or assembly. As to B1, in data set [2], the “stoichiometry N” value worked out at 2.
On to B2, for which, in data set [3], the binding result is reported as “binds”. Moreover, in data set [2], the “fold dimer-to-monomer ratio against HlgA” value worked out at 2 fold and the “stoichiometry N” value turned out to be 2.

B3: gamma-hemolysin component HlgA (S component leukotoxin) of Staphylococcus aureus (natural protein)
chain: ENKIEDIGQGAEIIKRTQDITSKRLAITQNIQFDFVKDKKYNKDALVVKMQGFISSRTTYSDLKKYPYIKRMIWPFQYNISLKTKDSNVDLINYLPKNKIDSADVSQKLGYNIGGNFQSAPSIGGSGSFNYSKTISYNQKNYVTEVESQNSKGVKWGVKANSFVTPNGQVSAYDQYLFAQDPTGPAARDYFVPDNQLPPLIQSGFNPSFITTLSHERGKGDKSEFEITYGRNMDATYAYVTRHRLAVDRKHDAFKNRNVTVKYEVNWKTHEVKIKSITPK
B3: the binding result in data set [3] and in data set [6] was “binds” in each case. The relative quantification in the equimolar mixture (HlgA monomer 100%) in data set [4] was 1.5%. For the same molecule, the stoichiometry N stood at 2 in data set [4] and 1 in data set [5].
